Results on 3 molecules are retold here after publication PMC9770967, “Native holdup (nHU) to measure binding affinities from cell extracts” (Science Advances, 2022).

B1: PTPRCAP: Protein tyrosine phosphatase receptor type C-associated protein (protein, UniProt Q14761 1-206, looked up)
Protein tyrosine phosphatase …: MALPCTLGLGMLLALPGALGSGGSAEDSVGSSSVTVVLLLLLLLLLATGLALAWRRLSRDSGGYYHPARLGAALWGRTRRLLWASPPGRWLQARAELGSTDNDLERQEDEQDTDYDHVADGGLQADPGEGEQQCGEASSPEQVPVRAEEARDSDTEGDLVLGSPGPASAGGSAEALLSDLHAFAGSAAWDDSARAAGGQGLHVTAL
B2: Microtubule-associated protein 4: full-length endogenous prey, gene MAP4 (protein, UniProt P27816 1-1152, looked up)
chain: MADLSLADALTEPSPDIEGEIKRDFIATLEAEAFDDVVGETVGKTDYIPLLDVDEKTGNSESKKKPCSETSQIEDTPSSKPTLLANGGHGVEGSDTTGSPTEFLEEKMAYQEYPNSQNWPEDTNFCFQPEQVVDPIQTDPFKMYHDDDLADLVFPSSATADTSIFAGQNDPLKDSYGMSPCNTAVVPQGWSVEALNSPHSESFVSPEAVAEPPQPTAVPLELAKEIEMASEERPPAQALEIMMGLKTTDMAPSKETEMALAKDMALATKTEVALAKDMESPTKLDVTLAKDMQPSMESDMALVKDMELPTEKEVALVKDVRWPTETDVSSAKNVVLPTETEVAPAKDVTLLKETERASPIKMDLAPSKDMGPPKENKKETERASPIKMDLAPSKDMGPPKENKIVPAKDLVLLSEIEVAQANDIISSTEISSAEKVALSSETEVALARDMTLPPETNVILTKDKALPLEAEVAPVKDMAQLPETEIAPAKDVAPSTVKEVGLLKDMSPLSETEMALGKDVTPPPETEVVLIKNVCLPPEMEVALTEDQVPALKTEAPLAKDGVLTLANNVTPAKDVPPLSETEATPVPIKDMEIAQTQKGISEDSHLESLQDVGQSAAPTFMISPETVTGTGKKCSLPAEEDSVLEKLGERKPCNSQPSELSSETSGIARPEEGRPVVSGTGNDITTPPNKELPPSPEKKTKPLATTQPAKTSTSKAKTQPTSLPKQPAPTTIGGLNKKPMSLASGLVPAAPPKRPAVASARPSILPSKDVKPKPIADAKAPEKRASPSKPASAPASRSGSKSTQTVAKTTTAAAVASTGPSSRSPSTLLPKKPTAIKTEGKPAEVKKMTAKSVPADLSRPKSTSTSSMKKTTTLSGTAPAAGVVPSRVKATPMPSRPSTTPFIDKKPTSAKPSSTTPRLSRLATNTSAPDLKNVRSKVGSTENIKHQPGGGRAKVEKKTEAAATTRKPESNAVTKTAGPIASAQKQPAGKVQIVSKKVSYSHIQSKCGSKDNIKHVPGGGNVQIQNKKVDISKVSSKCGSKANIKHKPGGGDVKIESQKLNFKEKAQAKVGSLDNVGHLPAGGAVKTEGGGSEAPLCPGPPAGEEPAISEAAPEAGAPTSASGLNGHPTLSGGGDQREAQTLDSQIQETSI
modifications: full-length
notes: full-length endogenous prey, gene MAP4
B3: ARHGEF6: Rho guanine nucleotide exchange factor 6 (protein, UniProt Q15052 1-776, looked up)
Rho guanine nucleotide …: MNPEEQIVTWLISLGVLESPKKTICDPEEFLKSSLKNGVVLCKLINRLMPGSVEKFCLDPQTEADCINNINDFLKGCATLQVEIFDPDDLYSGVNFSKVLSTLLAVNKATEDQLSERPCGRSSSLSAANTSQTNPQGAVSSTVSGLQRQSKTVEMTENGSHQLIVKARFNFKQTNEDELSVCKGDIIYVTRVEEGGWWEGTLNGRTGWFPSNYVREIKSSERPLSPKAVKGFETAPLTKNYYTVVLQNILDTEKEYAKELQSLLVTYLRPLQSNNNLSTVEVTSLLGNFEEVCTFQQTLCQALEECSKFPENQHKVGGCLLSLMPHFKSMYLAYCANHPSAVNVLTQHSDELEQFMENQGASSPGILILTTNLSKPFMRLEKYVTLLQELERHMEDTHPDHQDILKAIVAFKTLMGQCQDLRKRKQLELQILSEPIQAWEGEDIKNLGNVIFMSQVMVQYGACEEKEERYLMLFSNVLIMLSASPRMSGFIYQGKIPIAGTVVTRLDEIEGNDCTFEITGNTVERIVVHCNNNQDFQEWLEQLNRLIRGPASCSSLSKTSSSSCSAHSSFSSTGQPRGPLEPPQIIKPWSLSCLRPAPPLRPSAALGYKERMSYILKESSKSPKTMKKFLHKRKTERKPSEEEYVIRKSTAALEEDAQILKVIEAYCTSANFQQGHGSSTRKDSIPQVLLPEEEKLIIEETRSNGQTIMEEKSLVDTVYALKDEVRELKQENKRMKQCLEEELKSRRDLEKLVRRLLKQTDECIRGESSSKTSILP

The first experiment relates to SNX27_PDZ. Nature of the experiment: nHU-MS, SNX27_PDZ bait, total Jurkat extracts, series 1. In kind it is binding, human. The settings on record: Jurkat, series 1; n = 6. As for the experimental part:
The empty His6-AviTag-MBP-TEV vector was used to produce biotinylated MBP for control experiments. Proteins were coexpressed with BirA biotin ligase (PET21a-BirA, Addgene, no. 20857) in Escherichia coli BL21(DE3) cells. At isopropyl-β-D-thiogalactopyranoside (IPTG) induction (1 mM IPTG at 18°C overnight), 50 μM biotin was added to the media. Harvested cells were lysed in a buffer containing 50 mM tris (pH 7.5), 150 to 300 mM NaCl, 50 μM biotin, 2 mM β-mercaptoethanol, cOmplete EDTA-free protease inhibitor cocktail (Roche, Basel, Switzerland), 1% Triton X-100, and trace amount of deoxyribonuclease, ribonuclease, and lysozyme. Lysates were frozen at −20°C before further purification steps. Lysates were sonicated and centrifuged for clarification. Expressed proteins were captured on in-house prepacked Ni-IDA (Protino Ni-IDA Resin, Macherey-Nagel, Duren, Germany) columns and were washed with at least 10 column volumes of cold wash buffer [50 mM tris (pH 7.5), 150 mM NaCl, and 2 mM β-mercaptoethanol] before elution with 250 mM imidazole. The Ni elution was collected directly on a preequilibrated amylose column (amylose high flow resin, New England Biolabs, Ipswich, MA). Amylose column was washed with 5 column volumes of cold wash buffer before fractionated elution in a buffer containing 25 mM Hepes (pH 7.5), 150 mM NaCl, 1 mM TCEP, 10% glycerol, 5 mM maltose, and cOmplete EDTA-free protease inhibitor cocktail. The concentration of proteins was determined by their ultraviolet absorption at 280 nm before aliquots were snap-frozen in liquid nitrogen and stored at −80°C.
For saturating streptavidin resin with biotinylated peptides or biotin, 50 μl of streptavidin resin was mixed with biotin or peptide at 40 to 60 μM concentration in 6 to 6.5 resin volume for 60 min. To saturate streptavidin resin with biotinylated proteins, 50 μl of streptavidin resin (Streptavidin Sepharose High Performance, Cytiva) was mixed with biotinylated MBP or MBP-PDZ at 40 to 50 μM concentration in 20× resin volume for 60 min. After saturation, resins were washed a single time [10 resin volume, holdup buffer: 50 mM tris (pH 7.5), 300 mM NaCl, and 1 mM TCEP, 0.22-μm filtered] and were depleted with biotin (10 resin volume, 10 min, holdup buffer supplemented with 100 μM biotin). Last, resins were washed two times (10 resin volume, holdup buffer).
For single-point nHU experiments carried out at ~10 μM bait concentration, 50 μl of saturated streptavidin resin was mixed with 200 μl of cell lysate (2 mg/ml). Titration experiments were carried out by mixing control and bait-saturated resin and keeping the total resin volume constant; e.g., ~5 μM bait concentration can be achieved by mixing 25 μl of bait-saturated streptavidin resin with 25 μl of control resin and 200 μl of cell lysate (2 mg/ml). Control and bait-saturated resins were prepared in larger amounts, and a serial dilution was prepared with these presaturated resins to achieve different resin ratios.
Unless specified elswhere, the nHU mixture was incubated at 4°C for 2 hours. After the incubation ended, the resin was separated from the supernatant by a brief centrifugation (15 s, 2000 g). Then, half of the supernatant was removed by pipetting without any delay to avoid any resin contamination; e.g., 100 μl of supernatant is collected if 200 μl of cell lysate was used as analyte. Alternatively, the supernatant can be centrifuged an additional time to clarify it further, removing any possible resin contamination. In principle, the separation of the supernatant should be as fast as possible since any delay can perturb the equilibrium. […] Alternatively, the resin can be separated from the supernatant using filter plates (e.g., various products of Millipore, Burlington, MA) or spin columns (e.g., Pierce spin cups—cellulose acetate filter from Thermo Fisher Scientific, Waltham, MA) to achieve faster separation. […]
B1: the BI_HU was found to be 0.3458, the “FC_HU (log2 fold change)” value is given as -0.6123 and the Ratio_HU amounted to 0.6542.

B2: the BI_HU came out at 0.2772, the “FC_HU (log2 fold change)” value was -0.4683 and the Ratio_HU is recorded as 0.7228.

Consider B3, for which the BI_HU is listed as 0.3284, the “FC_HU (log2 fold change)” value is given as -0.5743 and the Ratio_HU amounted to 0.6716.

Staying with this experiment, now noted: apparent, Eq. 2; Jurkat, series 1; significant binders (1 σ, P < 0.05).
As to B1, the pKapp_significant_binders_HU is given as 4.725.

Turning to B2, the pKapp_significant_binders_HU worked out at 4.5849.

Turning to B3, the pKapp_significant_binders_HU was found to be 4.691.

The subject of a further experiment is SNX27_PDZ. Description: AP-MS control pull-down on leftover resin, SNX27_PDZ bait, total Jurkat extracts. In kind it is binding, human. The settings on record: Jurkat, series 1; leftover resin; n = 6. Here is the method:
Leftover beads from nHU-MS experiments were washed three times immediately after the separation of the supernatant [10 resin volume in buffer containing 50 mM tris (pH 8.5), 150 mM NaCl, 1% Triton X-100, 10× cOmplete EDTA-free protease inhibitor cocktail, 2 mM EDTA, and 1 mM TCEP]. Then, the beads were washed two times [10 resin volume buffer containing 50 mM tris (pH 8.5), 150 mM NaCl, and 1 mM TCEP]. Last, captured protein was eluted from the resin in two steps, and the eluted fractions were pooled. For each elution, the beads were incubated for 30 min with three resin volume buffer containing 20 mM tris (pH 8.5), 100 mM NaCl, 500 μM TCEP, and 8 M urea. Between each step, the beads were separated by mild centrifugation, and the supernatant was removed by gentle pipetting.
The nHU samples were precipitated with trichloroacetic acid (TCA) 20% overnight at 4°C and centrifuged at 14,000 rpm for 10 min at 4°C. The protein pellets were washed twice with 1 ml of cold acetone and air-dried. The protein extracts were solubilized in 8 M urea, reduced with 5 mM TCEP for 30 min, and alkylated with 10 mM iodoacetamide for 30 min in the dark. Double digestion was performed at 37°C with 500 ng of endoproteinase Lys-C (Wako, Richmond, USA) for 4 hours, followed by fourfold dilution and an overnight digestion with 500 ng of trypsin (Promega, Charbonnieres les Bains, France). Peptide mixtures were then desalted on a C18 spin-column and dried on a speed vacuum.
Samples were analyzed using an Ultimate 3000 nano-RSLC coupled in line via a nano-electrospray ionization source, with an LTQ-Orbitrap ELITE mass spectrometer (Thermo Fisher Scientific, San Jose, CA) or with the Orbitrap Exploris 480 mass spectrometer (Thermo Fisher Scientific, Bremen, Germany) equipped with a high field asymmetric ion mobility spectrometry (FAIMS) module. Peptide mixtures were injected in 0.1% trifluoroacetic acid on a C18 Acclaim PepMap100 trap column [75 μm inner diameter (ID) × 2 cm, 3 μm, 100 Å, Thermo Fisher Scientific] for 3 min at 5 μl/min with 2% acetonitrile (ACN) and 0.1% formic acid (FA) in H2O and then separated on a C18 Acclaim PepMap100 nano-column (75 μm ID × 50 cm, 2.6 μm, 150 Å, Thermo Fisher Scientific) at 300 nl/min and 40°C with a 90-min linear gradient from 5 to 30% buffer B (A: 0.1% FA in H2O/B: 80% ACN, 0.1% FA in H2O) and regeneration at 5% B. Spray voltage was set to 2.1 kV and heated capillary temperature was set to 280°C.
For the Orbitrap Elite, the mass spectrometer was operated in positive ionization mode in data-dependent mode with survey scans from mass/charge ratio (m/z) 350 to 1500 acquired in the Orbitrap at a resolution of 120,000 at m/z 400. The 20 most intense peaks from survey scans were selected for further fragmentation in the linear ion trap with an isolation window of 2.0 Da and were fragmented by collision-induced dissociation (CID) with a normalized collision energy of 35% (TOP 20 CID method). Unassigned and single-charged states were excluded from fragmentation. The ion target value for the survey scans (in the Orbitrap) and the MS2 mode (in the linear ion trap) were set to 1E6 and 5E3, respectively, and the maximum injection time was set to 100 ms for both scan modes. Dynamic exclusion was set to 20 s after one repeat count with mass width at ±10 parts per million (ppm).
Proteins were identified by database search using SequestHT (Thermo Fisher Scientific) with Proteome Discoverer 2.4 software (PD2.4, Thermo Fisher Scientific) on the human FASTA database downloaded from UniProt (reviewed, release 2021_06_03, 20380 entries, https://uniprot.org/, complemented with sequences of likely contaminants, such as MBP, streptavidin, or trypsin). Precursor and fragment mass tolerances were set at 7 ppm and 0.6 Da, respectively, and up to two missed cleavages were allowed. […]
Consider B1, for which the “FC_AP (log2 fold change)” value was found to be 0.5179 and the Ratio_AP is 1.432.

Consider B2, for which the “FC_AP (log2 fold change)” value was found to be 7.799 and the Ratio_AP stood at 222.732.

Turning to B3, the “FC_AP (log2 fold change)” value came out at 5.099 and the Ratio_AP was 34.2811.
